The source of these data is PMC6886308, “NADP(H) allosterically regulates the interaction between ferredoxin and ferredoxin‐NADP^+ reductase” (FEBS Open Bio, 2019).

One data set concerns the target T1, maize leaf FNR (L‐FNR) (Zea mays, UniProt Q9SLP6).
T1 construct: gene L-FNRI; recombinant mature leaf FNR, FAD flavoprotein, C-terminal Tyr314
T1 sequence (Q9SLP6 42-355): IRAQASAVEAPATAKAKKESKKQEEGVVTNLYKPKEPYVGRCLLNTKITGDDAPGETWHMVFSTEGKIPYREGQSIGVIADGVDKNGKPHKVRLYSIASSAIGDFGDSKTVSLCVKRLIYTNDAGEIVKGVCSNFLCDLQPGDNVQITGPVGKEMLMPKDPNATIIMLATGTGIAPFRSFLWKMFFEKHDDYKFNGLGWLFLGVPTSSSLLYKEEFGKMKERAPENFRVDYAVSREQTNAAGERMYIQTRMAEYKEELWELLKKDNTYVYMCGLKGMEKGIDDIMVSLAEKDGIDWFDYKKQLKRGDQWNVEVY
The experiment in a line: ITC of Fd I binding to FNR in presence of ligand; Fd-affinity chromatography. The note with it: 0-500 μM NADP+ (ITC); 50 mM Tris/HCl, pH 7.5; 298 K; allosteric on Fd binding.

For data set [1], the target named is maize leaf ferredoxin-NADP+ reductase R235Q (maize).
The target of data set [2] is maize leaf ferredoxin-NADP+ reductase R244Q (maize).
Data set [3] concerns the target maize leaf ferredoxin-NADP+ reductase Y314S (maize).
The target of data set [4] is maize leaf ferredoxin-NADP+ reductase, wild-type (maize).
Data set [5] concerns the target maize leaf ferredoxin-NADP+ reductase R235Q (maize). The experiment in a line: ITC; 500 uM Fd I in the syringe titrated into 50 uM L-FNR in the cell; 50 mM Tris/HCl pH 7.5, no NaCl, 298 K; one set of independent binding sites; 0 uM NADP+.
Data set [6] concerns the target maize leaf ferredoxin-NADP+ reductase R244Q (maize). Described as above.
For data set [7], the target named is maize leaf ferredoxin-NADP+ reductase Y314S (maize). Described as above.
The target of data set [8] is maize leaf ferredoxin-NADP+ reductase, wild-type (maize). The data set is described as above.
Data set [9] has as its target maize leaf ferredoxin-NADP+ reductase R235Q (maize). The experiment in a line: ITC; 500 uM Fd I in the syringe titrated into 50 uM L-FNR in the cell; 50 mM Tris/HCl pH 7.5, no NaCl, 298 K; one set of independent binding sites; 50 uM NADP+. In general terms: Isothermal titration calorimetry measures the heat released or taken up as one component is titrated into another.

Data set [10] concerns the target maize leaf ferredoxin-NADP+ reductase R244Q (maize). The description is as above.
In data set [11] the target is maize leaf ferredoxin-NADP+ reductase Y314S (maize). The data set is described as above.
Data set [12] deals with maize leaf ferredoxin-NADP+ reductase, wild-type (maize). Described as above.
For data set [13], the target named is maize leaf ferredoxin-NADP+ reductase R235Q (maize). The experiment in a line: ITC; 500 uM Fd I in the syringe titrated into 50 uM L-FNR in the cell; 50 mM Tris/HCl pH 7.5, no NaCl, 298 K; one set of independent binding sites; 500 uM NADP+.
The target of data set [14] is maize leaf ferredoxin-NADP+ reductase R244Q (maize). Described as above.
In data set [15] the target is maize leaf ferredoxin-NADP+ reductase Y314S (maize). The description is as above.
Data set [16] concerns the target maize leaf ferredoxin-NADP+ reductase, wild-type (maize). The description is as above.
Substrate in data set [17]: NC(=O)C1=CN([C@@H]2O[C@H](COP(=O)(O)OP(=O)(O)OC[C@H]3O[C@@H](n4cnc5c(N)ncnc54)[C@H](OP(=O)(O)O)[C@@H]3O)[C@@H](O)[C@H]2O)C=CC1
The experiment in a line: NADPH-dependent diaphorase assay. The class given is biochemical, Zea mays. The note with it: DCPIP as electron acceptor. From the text: NADPH-dependent diaphorase assay on maize leaf FNR (L‐FNR)

As for `NC(=O)c1ccc[n+]([C@@H]2O[C@H](COP(=O)(O)OP(=O)(O)OC[C@H]3O[C@@H](n4cnc5c(N)ncnc54)[C@H](OP(=O)(O)O)[C@@H]3O)[C@@H](O)[C@H]2O)c1` [NADP^+], the “ITC of Fd I binding to FNR in presence of ligand; Fd-affinity chromatography” value on maize leaf FNR (L‐FNR) is recorded as “The resulting dissociation constant (K d) increased by addition of NADP^+ into the titration reaction”.

Turning to “maize leaf ferredoxin I (from UniProt P27787 53-150) (natural protein)”, the Km for Fd in NADPH-dependent cyt c reduction, at 50 uM, 250 uM, 500 uM and 1 mM NADPH (0.30 to 5.0 uM) in [1] amounted to 5 µM. The Km for Fd in NADPH-dependent cyt c reduction, at 50 uM, 250 uM, 500 uM and 1 mM NADPH (0.75 to 6.9 uM) in data set [2] was found to be 6.9 µM. For the same molecule, in data set [3], the Km for Fd in NADPH-dependent cyt c reduction, at 50 uM, 250 uM and 500 uM NADPH (17, 13, 18 uM; not determined at 1 mM) was found to be 18 µM. Further, in [4], the apparent Km for Fd in NADPH-dependent cyt c reduction, at 50 uM, 250 uM, 500 uM and 1 mM NADPH (3.5 to 44 uM) worked out at 44 µM. The Kd (as a rule, the constant that tells how readily two partners part at equilibrium) in data set [5] amounted to 870 nM; in data set [6], 760 nM; in [7], 2200 nM; in data set [8], 1200 nM; in data set [9], 780 nM; in data set [10], 790 nM. For the same molecule, the equilibrium dissociation constant (Kd) in [11] was determined as 2600 nM; in data set [12], 1600 nM; in data set [13], 1300 nM; in [14], 1100 nM; in [15] it was 2300 nM; in data set [16], 3.7 µM. For the same molecule, the dH amounted to 8.3 kcal/mol in data set [5]; 8.3 kcal/mol in [6]; 5.6 kcal/mol in [7]; 9.8 kcal/mol in data set [8]; 7.3 kcal/mol in data set [9]; 7.4 kcal/mol in data set [10]. Moreover, the dH in data set [11] came to 4.3 kcal/mol; in data set [12] it was 8.8 kcal/mol; in data set [13], 6.3 kcal/mol; in data set [14], 5.8 kcal/mol; in data set [15], 3.6 kcal/mol; in [16] it was 6.7 kcal/mol. For the same molecule, the stoichiometry N (as a rule, a count of units in the complex or per binding partner) in data set [5] came out at 0.7; in data set [6] it was 0.7; in data set [7], 0.7; in [8] it was 0.7; in data set [9], 0.7; in [10], 0.8. The stoichiometry N was 0.7 in data set [11]; 0.7 in [12]; 0.9 in [13]; 1 in data set [14]; 0.7 in data set [15]; 0.8 in [16].

B1: maize leaf FNR (L‐FNR) (Zea mays) (protein)
chain: IRAQASAVEAPATAKAKKESKKQEEGVVTNLYKPKEPYVGRCLLNTKITGDDAPGETWHMVFSTEGKIPYREGQSIGVIADGVDKNGKPHKVRLYSIASSAIGDFGDSKTVSLCVKRLIYTNDAGEIVKGVCSNFLCDLQPGDNVQITGPVGKEMLMPKDPNATIIMLATGTGIAPFRSFLWKMFFEKHDDYKFNGLGWLFLGVPTSSSLLYKEEFGKMKERAPENFRVDYAVSREQTNAAGERMYIQTRMAEYKEELWELLKKDNTYVYMCGLKGMEKGIDDIMVSLAEKDGIDWFDYKKQLKRGDQWNVEVY
notes: recombinant mature leaf FNR, FAD flavoprotein, C-terminal Tyr314
In the case of B1, in [17], the Km (usually the substrate concentration at which the rate is half of its maximum) amounted to 46 ± 3 µM; the kcat (usually the number of substrate molecules converted per active site and unit of time at saturation) was 76 ± 14 s⁻¹.

B2: maize leaf FNR (L‐FNR) (Zea mays; Y355S) (protein)
chain: IRAQASAVEAPATAKAKKESKKQEEGVVTNLYKPKEPYVGRCLLNTKITGDDAPGETWHMVFSTEGKIPYREGQSIGVIADGVDKNGKPHKVRLYSIASSAIGDFGDSKTVSLCVKRLIYTNDAGEIVKGVCSNFLCDLQPGDNVQITGPVGKEMLMPKDPNATIIMLATGTGIAPFRSFLWKMFFEKHDDYKFNGLGWLFLGVPTSSSLLYKEEFGKMKERAPENFRVDYAVSREQTNAAGERMYIQTRMAEYKEELWELLKKDNTYVYMCGLKGMEKGIDDIMVSLAEKDGIDWFDYKKQLKRGDQWNVEVS
notes: as for B1
For the molecule B2, in [17], the Km came out at 0.27 ± 0.08 µM and the kcat was found to be 41 ± 6 s⁻¹.

B3: maize leaf FNR (L‐FNR) (Zea mays; R285Q) (protein)
chain: IRAQASAVEAPATAKAKKESKKQEEGVVTNLYKPKEPYVGRCLLNTKITGDDAPGETWHMVFSTEGKIPYREGQSIGVIADGVDKNGKPHKVRLYSIASSAIGDFGDSKTVSLCVKRLIYTNDAGEIVKGVCSNFLCDLQPGDNVQITGPVGKEMLMPKDPNATIIMLATGTGIAPFRSFLWKMFFEKHDDYKFNGLGWLFLGVPTSSSLLYKEEFGKMKERAPENFRVDYAVSREQTNAAGEQMYIQTRMAEYKEELWELLKKDNTYVYMCGLKGMEKGIDDIMVSLAEKDGIDWFDYKKQLKRGDQWNVEVY
notes: as for B1
Consider B3, for which, in [17], the Km came out at 310 ± 60 µM and the kcat turned out to be 139 ± 13 s⁻¹.

B4: maize leaf FNR (L‐FNR) (Zea mays; R276Q) (protein)
chain: IRAQASAVEAPATAKAKKESKKQEEGVVTNLYKPKEPYVGRCLLNTKITGDDAPGETWHMVFSTEGKIPYREGQSIGVIADGVDKNGKPHKVRLYSIASSAIGDFGDSKTVSLCVKRLIYTNDAGEIVKGVCSNFLCDLQPGDNVQITGPVGKEMLMPKDPNATIIMLATGTGIAPFRSFLWKMFFEKHDDYKFNGLGWLFLGVPTSSSLLYKEEFGKMKERAPENFRVDYAVSQEQTNAAGERMYIQTRMAEYKEELWELLKKDNTYVYMCGLKGMEKGIDDIMVSLAEKDGIDWFDYKKQLKRGDQWNVEVY
notes: as for B1
On to B4, for which, in data set [17], the Km was 500 ± 120 µM and the kcat turned out to be 60 ± 7 s⁻¹.
